The record followed here is IntAct's records for PubMed 23452855.

The labels stand for the following.
B1: F-box/LRR-repeat protein 21 (Mus musculus), Q8BFZ4 (parent)
chain: MKRNNFSAVNKVVQSSPVVKQPKRGLCSSLRQTHALSVLLDWGTLPHHVILQIFQYLPLIDRARASSVCRRWNEVFHIPDLWRKFEFELNQSATSYFKSTHPDLIQQIIKKHAAHLQYVSFKVDSSTESAEAACDILSQLVNCSIQTLGLISTAKPSFMNVPKSHFVSALTVVFVNSKSLSSIKIEDTPVDDPSLKILVANNSDTLRLLKMSSCPHVSSDGILCVADHCQGLRELALNYYILSDEILLALSSETHVNLEHLRIDVVSENPGQIKFHSIKKRSWDALIKHSPRVNVVMYFFLYEEEFEAFFKEETPVTHLYFGRSVSRAILGRIGLNCPRLIELVVCANGLLPLDSELIRIAKHCKNLTSLGLSECEVSCSAFVEFVRLCGRRLTQLSIMEEVLVPDDRYTPDEVHTEVSKHLGRVWFPDVMPIW
partner: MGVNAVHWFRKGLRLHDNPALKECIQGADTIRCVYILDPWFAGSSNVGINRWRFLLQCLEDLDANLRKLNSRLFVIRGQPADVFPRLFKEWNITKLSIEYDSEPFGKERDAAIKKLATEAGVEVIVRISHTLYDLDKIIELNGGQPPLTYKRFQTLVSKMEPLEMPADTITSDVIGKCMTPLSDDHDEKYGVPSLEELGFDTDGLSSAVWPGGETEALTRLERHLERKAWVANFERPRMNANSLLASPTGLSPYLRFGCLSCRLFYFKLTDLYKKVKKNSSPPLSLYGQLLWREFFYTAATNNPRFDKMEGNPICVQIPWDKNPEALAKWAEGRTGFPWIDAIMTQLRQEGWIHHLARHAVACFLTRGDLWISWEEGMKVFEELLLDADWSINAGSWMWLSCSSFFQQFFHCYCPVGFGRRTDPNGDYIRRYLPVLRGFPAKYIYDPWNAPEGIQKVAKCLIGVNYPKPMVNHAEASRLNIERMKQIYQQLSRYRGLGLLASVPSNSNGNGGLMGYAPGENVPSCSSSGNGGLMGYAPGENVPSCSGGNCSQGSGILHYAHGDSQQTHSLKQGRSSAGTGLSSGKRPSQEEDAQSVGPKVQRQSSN

Variants of B1 are the subject of the assay. The following applies: with cry1_mouse Cry1, P97784.
Consider G149E, for which the “effect of a mutation on the interaction” value is “decreasing interaction strength”.
